Experimental data: article PMC9569620, “OsNAC15 Regulates Tolerance to Zinc Deficiency and Cadmium by Binding to OsZIP7 and OsZIP10 in Rice”

Tests used:
GST-OsNAC15 [1] = molecular target: T1, GST-OsNAC15 (Oryza sativa, UniProt K9LKF1 1-301); test: competition; 25-fold molar excess over labeled OsZIP10 probe; complex band weaker; EMSA: 20 uL reaction, room temperature, 20 min; 6.5% polyacrylamide gel in 0.5x TBE, 1 h; buffer, salt and pH not stated (LightShift Chemiluminescent EMSA kit); conditions: protein: recombinant; tags: N-term GST (pGEX-4T1); chain copies: 2; label: none; blunt
T1 sequence: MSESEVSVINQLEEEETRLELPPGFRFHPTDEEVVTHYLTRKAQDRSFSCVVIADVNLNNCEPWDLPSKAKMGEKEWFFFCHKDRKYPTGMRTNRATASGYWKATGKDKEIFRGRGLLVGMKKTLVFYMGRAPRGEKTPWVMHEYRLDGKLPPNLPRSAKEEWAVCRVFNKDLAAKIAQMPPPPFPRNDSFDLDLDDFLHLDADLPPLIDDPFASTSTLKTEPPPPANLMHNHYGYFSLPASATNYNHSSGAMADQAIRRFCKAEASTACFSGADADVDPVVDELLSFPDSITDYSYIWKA

GST-OsNAC15 [2] = molecular target: T1, GST-OsNAC15; test: EMSA; EMSA: 20 uL reaction, room temperature, 20 min; 6.5% polyacrylamide gel in 0.5x TBE, 1 h; buffer, salt and pH not stated (LightShift Chemiluminescent EMSA kit); conditions: protein: recombinant; tags: N-term GST (pGEX-4T1); chain copies: 2; label: biotin at 5' of F strand; biotin printed at 3' end of R strand; blunt

| Binder | binding result (GST-OsNAC15 [1]) | binding result (GST-OsNAC15 [2]) |
| --- | --- | --- |
| OsZIP10 cold competitor (dsDNA) DNA 1: TCGCGCCATGGTGTCGACACGGCCATCTCT DNA 2: AGAGATGGCCGTGTCGACACCATGGCGCGA | binds |  |
| OsZIP10 probe (dsDNA) DNA 1: TCGCGCCATGGTGTCGACACGGCCATCTCT DNA 2: AGAGATGGCCGTGTCGACACCATGGCGCGA |  | binds |
